Laboratory results published in patent US11419945B2, “Antigen binding proteins” (Glaxo Group Limited, priority 2011, dated 2022).

What was measured:
BCMA-Fc = assay: Biacore cross reactivity experiment, BCMA-Fc; type: binding; conditions: antibody captured on protein A
Experimental: (§1) CA8 chimera antibody was injected and captured on protein A. (A protein A derivitised sensorchip was used). Residual protein A binding was blocked with an injection of a high concentration of human IgG solution. BCMA-Fc, TACI-Fc or BAFF-R-Fc solutions were then tested for binding to the antibody. The 3 proteins were injected in sequence and binding events were measured. The surface was regenerated between injection of each protein.
(§2) Sensorgrams were analysed in the Biaevaluation program. Double reference subtraction was done to remove instrument noise and any non-specific binding from the sensorgram curves.

BAFF-R-Fc = assay: Biacore cross reactivity experiment, BAFF-R-Fc; type: binding; conditions: antibody captured on protein A; listed as CA8 chimera antibody
Sequence of BAFF-R-Fc (Q96RJ3 1-78 limits assumed): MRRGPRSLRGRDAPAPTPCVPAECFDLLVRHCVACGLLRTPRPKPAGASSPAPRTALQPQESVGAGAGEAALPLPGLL
Experimental: as §1, §2

cyno BCMA-Fc = assay: ELISA binding to recombinant cyno BCMA-Fc; conditions: 5 ug/ml to 0.1 ug/ml antibody
Sequence of cyno BCMA-Fc (as listed by the source): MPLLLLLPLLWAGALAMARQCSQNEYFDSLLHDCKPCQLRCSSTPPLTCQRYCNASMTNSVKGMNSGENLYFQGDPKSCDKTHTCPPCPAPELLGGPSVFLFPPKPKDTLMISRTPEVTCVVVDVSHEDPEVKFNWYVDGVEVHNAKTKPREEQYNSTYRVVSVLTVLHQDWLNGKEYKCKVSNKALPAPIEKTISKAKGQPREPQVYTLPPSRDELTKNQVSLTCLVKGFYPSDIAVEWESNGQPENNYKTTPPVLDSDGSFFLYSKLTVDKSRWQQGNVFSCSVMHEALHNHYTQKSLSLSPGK
Experimental: Chimeric CA8 antibodies were tested for binding to human BCMA and cyno BCMA expressed as Fc fusions. Human BCMA-Fc and cyno BCMA-Fc were coated to ELISA plates and the plates were blocked using BSA to reduce non specific binding. CA8 chimeric antibodies were added in a concentration range from 5 ug/ml to 0.1 ug/ml to the human and cyno BCMA coated ELISA plates. Any bound human chimeric CA8 antibody was detected using anti-human IgG HRP conjugated secondary antibody as appropriate. HRP substrate (TMB) was added to develop the ELISA.

TACI-Fc = assay: Biacore cross reactivity experiment, TACI-Fc; type: binding; conditions: antibody captured on protein A
Experimental: as §1, §2

[1] = system: ARH77 BCMA transfected target cells (10B5); assay: ADCC of chimeric and defucosylated chimeric CA8 with NK cells; type: cell-based; conditions: human NK cells, E:T ratio 5:1, 2 hours
Experimental: Human natural killer (NK) cells were incubated with europium labelled ARH77 BCMA transfected target cells (10B5) in the presence of varying concentrations of antibody at an E:T ratio of 5:1 for 2 hours. Europium release from the target cells was measured and specific lysis calculated.

[2] = target: T1, ARH77-hBCMA 10B5 BCMA expressing transfectant cells (Homo sapiens, UniProt Q02223); assay: FACS binding of humanised CA8 to BCMA transfected cells; conditions: varying concentrations, 20 minutes at RT
T1 construct: expressed in transfected cells; host or cells: ARH77 (clone 10B5)
T1 sequence (Q02223 1-184): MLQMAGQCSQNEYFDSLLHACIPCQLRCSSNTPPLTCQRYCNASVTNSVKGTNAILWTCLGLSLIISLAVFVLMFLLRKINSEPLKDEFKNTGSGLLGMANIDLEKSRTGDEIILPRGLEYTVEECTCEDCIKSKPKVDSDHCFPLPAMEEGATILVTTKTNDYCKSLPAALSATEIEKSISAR
Experimental: (§3) ARH77-hBCMA 10B5 BCMA expressing transfectant cells or H929 cells were stained with either chimeric CA8 or humanised variants of CA8 designated J6M0, J6M1, J6M2, J9M0, J9M1, J9M2 at varying concentrations for 20 minutes at RT. Cells were then washed with FACS buffer (PBS+0.5% BSA+0.1% sodium azide) to remove unbound antibody. Cells were incubated with a secondary PE labelled anti-human IgG antibody for 15 minutes at RT and then washed with FACS buffer to remove unbound antibody. Cells were analysed by FACS and mean fluorescence intensity (MFI) values measured to determine binding.

Human commercial BCMA [3] = target: T2, Human commercial BCMA (Homo sapiens, UniProt Q02223); assay: BIAcore analysis J7 to J9 series, human commercial BCMA; type: binding; conditions: 37° C.
T2 construct: purchased US Biological B0410
T2 sequence (Q02223 1-184): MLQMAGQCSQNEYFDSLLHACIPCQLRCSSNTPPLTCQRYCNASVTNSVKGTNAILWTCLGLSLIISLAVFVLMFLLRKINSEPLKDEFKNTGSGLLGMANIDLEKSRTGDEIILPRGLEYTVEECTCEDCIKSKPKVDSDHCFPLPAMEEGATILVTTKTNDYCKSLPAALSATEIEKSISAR
Experimental: Protein A was immobilised on a CMS chip (GE Healthcare, Cat No: BR-1005-30) by primary amine coupling and this surface was then used to capture the antibody molecules. Recombinant human BCMA (US Biological, B0410) was used as analyte at 256 nM, 64 nM, 16 nM, 4 nM and 1 nM. Regeneration of the capture surface was carried out using 50 mM NaOH. All binding curves were double referenced with a buffer injection (i.e. 0 nM) and the data was fitted to the using the 1:1 model inherent to T100 evaluation software. The run was carried out at 37° C., using HBS-EP as the running buffer.

H929 cells = assay: FACS binding of humanised CA8 to H929 cells; parameters: species or system human; conditions: varying concentrations, 20 minutes at RT
Experimental: as §3

Human commercial BCMA [4] = target: T2, Human commercial BCMA; assay: BIAcore analysis of J6M0 and J9M0, human commercial BCMA; type: binding
Experimental: Protein A was immobilised on a CMS chip (GE Healthcare, Cat No: BR-1005-30) by primary amine coupling and this surface was then used to capture the antibody molecules. Recombinant human BCMA (US Biological, B0410) was used as analyte at 256 nM, 64 nM, 16 nM, 4 nM and 1 nM. Regeneration of the capture surface was carried out using 50 mM NaOH. All binding curves were double referenced with a buffer injection (i.e. 0 nM) the data was fitted to the using the 1:1 model inherent to T100 evaluation software. The run was carried out at 25° C. and 37° C. for experiment 1 and only 37° C. for experiment 2 using HBS-EP as the running buffer.

Human in house BCMA = target: T3, Human in house BCMA (Homo sapiens, UniProt Q02223); assay: ProteOn analysis of CA8 chimeric and humanised constructs, human in house BCMA; type: binding; conditions: ProteOn, 25° C.; for ka: in M-1s-1 (unit assumed); for kd: in s-1 (unit assumed)
T3 construct: CD33 signal peptide (N); TEV site (internal); Fc (C); made in house
T3 sequence (Q02223 with tags, fused parts or gaps limits assumed): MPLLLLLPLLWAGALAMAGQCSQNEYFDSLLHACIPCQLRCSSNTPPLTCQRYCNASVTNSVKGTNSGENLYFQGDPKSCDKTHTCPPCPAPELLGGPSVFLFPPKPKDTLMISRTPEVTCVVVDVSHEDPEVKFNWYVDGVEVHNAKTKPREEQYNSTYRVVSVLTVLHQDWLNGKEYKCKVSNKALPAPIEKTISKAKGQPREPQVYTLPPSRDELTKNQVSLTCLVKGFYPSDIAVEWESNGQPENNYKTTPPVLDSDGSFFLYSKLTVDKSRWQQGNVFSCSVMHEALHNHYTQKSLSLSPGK
Procedure, shortened: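 SPR at 25 °C in HBS-EP: CA8 antibodies captured on Protein A-coated chip, recombinant BCMA injected at 256, 64, 16, 4, 1 nM with buffer double-referencing; NaOH regeneration. Kinetics from 1:1 model fit; run 2 also used commercial human BCMA.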

B1: CA8 Chimera: chimeric anti-BCMA antibody: murine CA8 VH (SEQ ID NO:7) and VL (SEQ ID NO:9) on human γ1 and kappa constant regions (antibody, V domains shown)
VH: EVQLQQSGAVLARPGASVKMSCKGSGYTFTNYWMHWVKQRPGQGLEWIGATYRGHSDTYYNQKFKGKAKLTAVTSTSTAYMELSSLTNEDSAVYYCTRGAIYNGYDVLDNWGQGTLVTVSS
VL: DIQLTQTTSSLSASLGDRVTISCSASQDISNYLNWYQQKPDGTVELVIYYTSNLHSGVPSRFSGSGSGTDYSLTIGYLEPEDVATYYCQQYRKLPWTFGGGSKLEIKR
modifications: human IgG1 and kappa constant regions; mus musculus
binding to BCMA-Fc (BCMA-Fc): specific for binding to BCMA | binding to BAFF-R-Fc (BAFF-R-Fc): does not bind | binding to recombinant cyno BCMA (ELISA) (cyno BCMA-Fc; listed as Chimeric CA8): binds to recombinant human and cyno BCMA | binding to recombinant cyno BCMA (ELISA) (cyno BCMA-Fc; listed as human chimeric CA8 antibodies): bind to human and cyno BCMA proteins equally | binding to TACI-Fc (TACI-Fc; listed as CA8): not to TACI | binding to TACI-Fc (TACI-Fc; listed as CA8 chimera antibody): does not bind | ADCC activity (specific lysis, europium release) [1]: killed BCMA expressing target cells via ADCC | dose dependent binding to ARH77-hBCMA 10B5 cells by FACS (MFI) [2]: bound | ka (Human commercial BCMA [3]; in M-1s-1 (unit assumed)): 3.27E+07 | kd (Human commercial BCMA [3]; in s-1 (unit assumed)): 1.18E−03 | dose dependent binding to H929 cells by FACS (MFI) (H929 cells): bound | ka (Human commercial BCMA [4]; 25° C., Experiment 1, in M-1s-1 (unit assumed)): 1.88E+06 | kd (Human commercial BCMA [4]; 25° C., Experiment 1, in s-1 (unit assumed)): 2.63E−04 | ka (Human commercial BCMA [4]; 37° C., Experiment 1, in M-1s-1 (unit assumed)): 1.72E+07 | kd (Human commercial BCMA [4]; 37° C., Experiment 1, in s-1 (unit assumed)): 8.72E−04 | ka (Human commercial BCMA [4]; 37° C., Experiment 2, in M-1s-1 (unit assumed)): 1.88E+07 | kd (Human commercial BCMA [4]; 37° C., Experiment 2, in s-1 (unit assumed)): 1.04E−03 | ka (Human in house BCMA; Run 1, Human in house BCMA): 2.41E+05 | kd (Human in house BCMA; Run 1, Human in house BCMA): 1.25E−04 | ka (Human in house BCMA; Run 2, Human in house BCMA): 2.51E+05 | kd (Human in house BCMA; Run 2, Human in house BCMA): 1.03E−04
